# Assays:
# [1] = tested on: T1, hC3 peptide modified with Gly attached to a Cy5 dye at the N terminus
# T1 sequence: KIIDEDLNSRALG
# [2] = tested on: T2, fluorogenic composition Cy5-SEQ. ID. NO.: 1-Cy7Q
# T2 sequence: KIIDEDLNSRALG
substance,measurement,setting,value
C3 convertase (in human plasma),"cleavage of the Cy5-labelled peptide in human plasma in a Latex plate, by reverse phase HPLC at 670 nm",[1],A new peak was observed in addition to the original peak. The new peak represents the cleavage product.
same,"fluorescence intensity (excitation 623 nm, emission 676 nm), latex-activated plasma against plasma alone after subtracting the PBS control",[2],the signal enhancement due to Latex activation of complement was >100%
same,"fluorescence intensity (excitation 623 nm, emission 676 nm), plasma incubated on latex coated polystyrene against plasma alone",[2],showed >50% enhancement in signal over the plasma alone sample

# From US20080305504
